US12194082B2, “Compositions and methods for treatment of homocystinuria” (THE REGENTS OF THE UNIVERSITY OF COLORADO, priority 2016, dated 2025)
Where “and” joins values, the source holds several entries; their conditions need not be identical. Identical values can stand only once.

What was measured:
[1] = tested on: Hcy, Cth, Cys, Met; test: Diet study (regular vs Met-restricted diet) in I278T mice: plasma metabolites; format: in vivo
Experimental: A diet study was performed in I278T mice and analyze them. Plasma metabolites of 10 weeks old mice: +/− I278T (control), −/− I278T (negative control), and −/− treated with 20NHS PEG-[…] (OT-58) mice. Each group was further divided into subgroups: one on a regular diet (8.2 g/kg Met TD.01084 diet+zinc water) (REG) and one on a methionine-restricted diet (0.5 g/kg Met TD.110591 diet+betaine water) (MRD). Treatment was begun at W5 of age.

[2] = Pharmacokinetics of 20NHS PEG-htCBS C15S in monkeys
Experimental: The pharmacokinetic (PK) parameters were calculated using a non-compartmental curve stripping model which resolves a curve into a series of exponential terms corresponding to the absorption, distribution and elimination phases occurring during the time course of the enzyme in the blood. The curve stripping approach assumes that the disposition phases of the drug follow apparent first-order kinetics, which is evidenced by the linearity in the terminal portion of a semi-log plot. These calculations were made using a modeling program called PK Solutions 2.0 (Summit Solutions, Montrose, CO) using the mean plasma enzyme activity for each route of administration. The bioavailability was calculated by dividing the area under the curve (AUC) for the SC or IP route by the AUC observed after IV administration.
For the single dose PK study, three experimental groups of 4 (n=2M+2F) monkeys each were used to conduct the experiments. The first group received 2 mg/kg 20NHS PEG-htCBS C15S via IV injection. Blood was collected at 0, 0.083, 0.16, 0.25, 0.5, 1, 2, 4, 8, 24, 72, 120, and 192 hours post IV injection. The second and third groups received either 2 mg/kg or 6 mg/kg 20NHS PEG-htCBS C15S via SC injection. Blood was collected at 0, 1, 2, 4, 8, 24, 48, 72, 96, 120, 192, 240, and 336 hours post SC injection.

[3] = tested on: Hcy, Cys; test: Continuous administration by ALZET osmotic pump in HO mice; format: in vivo; conditions: ALZET Model 2004 or 2006 pumps
Experimental: ALZET® osmotic pumps provide steady, controlled delivery of the 20NHS PEG-htCBS C15S for a prolonged period of time in fresh and naïve HO mice. The htCBS C15S PEGylated with ME-200GS was administrated using four different models of micro-osmotic ALZET® pumps, which continuously dispensed a volume of enzyme per hour instead of repeated subcutaneous injections: Model 1002 (0.25 μl/h), Model 2002 (0.5 μl/h), Model 2004 (0.25 μl/h), and Model 2006 (0.15 μl/h).
For pain relief, pre- and post-operatively, animals were also administered TYLENOL® (2 mg/ml) in water bottles ad libitum for 48 hours before and after surgery for implantation of the ALZET® pump. In addition, the animals received 5 mg/kg of carprofen subcutaneously every 24 hours, and for 48 hours postoperatively. For anesthesia during surgery, 5% isoflurane was administered by inhalation and maintained at 2-3% during surgery. While mice were anesthetized, they each received a medical grade ALZET® osmotic pump implanted under sterile conditions in a biological safety cabinet. Pumps were implanted subcutaneously in the loose skin area on the ventral side of the neck. Prior to implanting the pump, the mice were shaved and the skin area was prepped with BETADINE®. Pump implantation required a small surgical incision (5 mm) made with sterile scissors. […]

20NHS PEG-htCBS C15S: htCBS C15S PEGylated with ME-200GS PEG (20 kDa linear NHS ester-activated PEG)
plasma Cth ([1]; −/− I278T on MRD diet): 10 µM
plasma Hcy ([1]; −/− I278T on MRD diet (41 μM untreated)): 2 µM
plasma Cth ([1]; −/− I278T on REG diet): 113 µM
plasma Met ([1]; −/− I278T on REG diet): 66 µM
plasma Hcy ([1]; −/− I278T on REG diet (356 μM untreated)): 50 µM
plasma Hcy ([1]; −/− I278T on REG diet (356 μM untreated), listed as OT-58): 51 µM
plasma Cys ([1]; −/− I278T, MRD diet and/or treatment): normalize plasma levels of Cys
AUC(0-t) (obs area) ([2]; 2 mg/kg IV): 5942 ± 156 mU-h/μl
Bioavailability ([2]; 2 mg/kg IV): 100%
CL (obs area) ([2]; 2 mg/kg IV): 22.4 ± 1.27 mL/day/kg
MRT (area) ([2]; 2 mg/kg IV): 89.9 ± 2.4 h
cp0 ([2]; 2 mg/kg IV): 96.5 ± 2.8 mU/μl
AUC(0-t) (obs area) ([2]; 2 mg/kg SC): 5263 ± 299 mU-h/μl
Bioavailability ([2]; 2 mg/kg SC): 80.8 ± 4.7%
MRT (area) ([2]; 2 mg/kg SC): 116.3 ± 2.4 h
cmax ([2]; 2 mg/kg SC): 40.8 mU/μl and 40.8 ± 2.0 mU/μl
tmax (obs) ([2]; 2 mg/kg SC): 26.2 ± 2.6 h
AUC(0-t) (obs area) ([2]; 6 mg/kg SC): 15743 ± 629 mU-h/μl
Bioavailability ([2]; 6 mg/kg SC): 79.9 ± 3.5%
MRT (area) ([2]; 6 mg/kg SC): 116.2 ± 5.0 h
cmax ([2]; 6 mg/kg SC): 114.9 mU/μl and 114.9 ± 7.5 mU/μl
tmax (obs) ([2]; 6 mg/kg SC): 32.4 ± 2.4 h
CBS activity after repeated administrations ([2]; 6 SC doses every 72 hours): no attenuation of CBS activity
tmax ([2]; Monkey/both sexes, SC): 29 h
bioavailability (F %) after SC administration ([2]; monkeys, both sexes, across SC doses, listed as OT-58): 81%
Cys plasma levels [3]: only a modest increase
plasma levels of Hcy [3]: substantially reduced
